Like-named read-outs stand apart in the source and are kept apart here.

This note sets out measurements from US20220105194A1, “CONJUGATE COMPRISING LIGAND, SPACER, PEPTIDE LINKER, AND BIOMOLECULE” (ASTELLAS PHARMA INC., priority 2019, published 2022).

Data set [1] has as its target human cancer-specific MUC1. Nature of the data set: Example 6-2: ELISA binding activity of anti-human MUC1 antibody Fab^5 fragment conjugates. To be noted: immobilized human cancer-specific MUC1 peptide. The method, then:
Each anti-human MUC1 antibody Fab^5 fragment conjugate prepared by the method of Example 5 was subjected to ELISA to evaluate the binding activity thereof to human cancer-specific MUC1. In the present test, 20×PBS/Tween 20 Buffer (Thermo Fisher Scientific Inc., 28352) diluted 20-fold with distilled water was used as a wash liquid. In addition, for bovine serum albumin (BSA) used in the present test, 30% Bovine Serum Albumin solution (Sigma-Aldrich, Inc., A9576-50ML) was added in an appropriate proportion for use. A human cancer-specific MUC1 peptide (PTL 1) at 0.5 μmol/L was added to a Nunc MaxiSorp White 384 plate (Nunc, 460372) at 30 μL per well, and the plate was incubated overnight at 4° C. for immobilization. The MUC1 peptide was removed by reverse centrifugation, and then blocking was carried out by adding a PBS/Tween 20 buffer containing 5.0% BSA. […] The substrate was incubated at room temperature for 15 minutes, and then a signal value thereof was measured using an Envision counter (PerkinElmer, Inc.).
The test for each antibody was carried out in duplicate, and the EC50 value was calculated using a 4-parameter logistic curve model.

Data set [2] has as its target human cancer-specific MUC1. Nature of the data set: Example 6-1: ELISA binding activity of anti-human MUC1 antibody Fab^5 fragment conjugates. To be noted: immobilized human cancer-specific MUC1 peptide, single runs of P10-2, read-out: EC50 value (nM) for each of 3 runs. For orientation: An ELISA detects its analyte on a solid surface through an enzyme-linked reagent.

On the set-up of data set [3]: species or system mice (BALB/c nu/nu). To be noted: mouse, in vivo.
Description: (§1) A Gd-labeled conjugate of the conjugate containing a peptide linker produced in one of the above Examples was administered from the tail vein of the tumor-bearing mice so that the protein mass was 0.02 mg (100 μL) per animal. As the tumor-bearing mice used in the present Example, mice (BALB/c nu/nu) that were in a tumor-bearing state brought about by transplanting human breast cancer cell line MDA-MB-468 (ATCC(registered trademark); HTB-132) at 5.0×10^6 cells/mouse subcutaneously on the back before administration of the sample were used. 24 hours after administration of the sample, the mice were sacrificed, the kidneys and the tumor were removed, and the amounts of Gd in the kidneys and in the tumor were measured using ICP-MS. The present test was carried out in 3 cases in each group, and the mean value of the 3 cases was calculated. The amount of Gd contained per kidney after administration was shown as a percentage of the amount of Gd administered (% of dose/tissue), and the amount of Gd contained per g of tumor tissue was shown as a percentage of the total amount of Gd administered (% of dose/g).
For data set [4], the system named is human breast cancer cell line MDA-MB-468. As to the kind of experiment: Example 8: amount of tumor accumulation of Gd-labeled conjugates (tumor-bearing mice). To be noted: MDA-MB-468 tumor-bearing mice, 24 hours; control conjugate Ex-No. 108, mean of 2 runs.
Description: as §1
Details of data set [5]: species or system mice (BALB/c or BALB/c nu/nu). To be noted: mouse, in vivo.
Description: (§2) A Gd-labeled conjugate of the conjugate containing a peptide linker produced in one of the above Examples was administered from the tail vein of mice (BALB/c or BALB/c nu/nu) so that the protein mass was 0.02 mg (100 μL) per animal. After about 24 hours, the mice were sacrificed and the kidneys were removed, and the amount of Gd in the kidneys was measured using ICP-MS. The present test was carried out in 3 cases in each group, the mean value of the 3 cases was calculated, and the amount of Gd contained per kidney after administration was shown as a percentage (% of dose/tissue) of the total amount of Gd administered.
Based on the amount of Gd contained in the kidneys of the control conjugate, the proportion of decrease in the amount of Gd contained in the kidneys of each of the conjugates having a peptide linker was determined.
Data set [6] concerns the target human cancer-specific MUC1 peptide (PTL 1) (human). As to the kind of experiment: ELISA, immobilised MUC1 peptide (Example 6-1).
For data set [7] the target is unchanged. Nature of the data set: ELISA, immobilised MUC1 peptide (Example 6-2).
On the set-up of data set [8]: species or system mice (BALB/c nu/nu). To be noted: mouse, in vivo. This is another data set of the same source.
Description: (§3) A Gd-labeled conjugate of the conjugate containing a peptide linker produced in one of the above Examples was administered from the tail vein of tumor-bearing mice so that the protein mass was 0.02 mg (100 μL) per animal. As the tumor-bearing mice used in the present Example, mice (BALB/c nu/nu) that were in a tumor-bearing state brought about by transplanting human colorectal cancer cell line LS174T cells (ATCC(registered trademark); CL-188) at 2.0 to 5.0×10^6 cells/mouse subcutaneously on the back before administration of the sample were used. 24 hours after administration of the sample, the mice were sacrificed, the kidneys and the tumor were removed, and the amounts of Gd in the kidneys and in the tumor were measured using ICP-MS. The present test was carried out in 3 cases in each group, and the mean value of the 3 cases was calculated. The amount of Gd contained per kidney after administration was shown as a percentage of the amount of Gd administered (% of dose/tissue), and the amount of Gd contained per g of tumor tissue was shown as a percentage of the total amount of Gd administered (% of dose/g).
Data set [9] has as its system human colorectal cancer cell line LS174T cells. As to the kind of experiment: Example 4-4: amount of tumor accumulation of Gd-labeled conjugates (tumor-bearing mice). To be noted: tail vein, 0.02 mg protein per animal, 24 hours, ICP-MS, mean of 3 cases.
Description: as §3
A short description of data set [10]: Example 4-1: kidney accumulation evaluation test of Gd-labeled conjugates (normal mice). To be noted: about 24 hours, relative to control conjugate Ex-No 47.
Description: as §2
(§4) Based on the percentage of the control conjugate (% of dose/tissue), the proportion of decrease in the amount of Gd contained in the kidneys of each of the conjugates having a peptide linker was determined and shown in Table 28.
For data set [11] the following is noted: mouse, in vivo.
Description: as §2, §4
On the set-up of data set [12]: species or system mice (BALB/c or BALB/c nu/nu). To be noted: mouse, in vivo. This is another data set of the same source.
Description: as §2
For data set [13] the following is noted: mouse, in vivo. This is another data set of the same source.
Description: as §2

Chain of human cancer-specific MUC1 peptide (PTL 1) (human) (main, as listed by the source): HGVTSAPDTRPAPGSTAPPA

B1: P10-2: anti-human MUC1 antibody Fab fragment disclosed in International Publication WO2018/092885 (antibody)
heavy: QVQLVQSGAEVKKPGASVKVSCKASGYTFTNYGLSWVRQAPGQGLEWMGENHPGSGIIYHNEKFRGRVTLTADRSTSTAYMELSSLRSEDTAVYYCARSSGTRGFDYWGQGTLVTVSSASTKGPSVFPLAPSSKSTSGGTAALGCLVKDYFPEPVTVSWNSGALTSGVHTFPAVLQSSGLYSLSSVVTVPSSSLGTQTYICNVNHKPSNTKVDKKVEPKSCD
light: DVVMTQTPLSLSVTPGQPASISCRSSQSIVHSNGNTYLEWYLQKPGQSPQLLIYRVSNRFSGVPDRFSGSGSGTDFTLKISRVEAEDVGVYYCFQGSHGPWTFGQGTKLEIKRTVAAPSVFIFPPSDEQLKSGTASVVCLLNNFYPREAKVQWKVDNALQSGNSQESVTEQDSKDSTYSLSSTLTLSKADYEKHKVYACEVTHQGLSSPVTKSFNRGEC
For B1, the EC50 in [1] (single runs of P10-2, read-out: EC50 value (nM) for each of 3 runs) came to 0.06 nM; in [2], 0.06 nM.

B2: Ex-No 108 (conjugate)
heavy: B1 heavy
light: B1 light
For the molecule B2, the “Renal residual amount (% of dose/tissue), Mean” value in [3] was 34.67 % of dose/tissue. Further, the “Amount of tumor accumulation (% of dose/g), Mean” value in data set [4] is reported as 0.92 % of dose/g. For the same molecule, the “Renal residual amount (normal mice), Mean (% of dose/tissue)” value in [5] is given as 33.00 % of dose/tissue.

B3: [Gd/DOTA-NH—CH2-(1,4-Ph)-NH—C(═O)-Met-Ile-NH—(CH2)2—Z1(#S)]p-Fab^5 (conjugate)
heavy: B1 heavy
light: B1 light
On to B3, for which the EC50 in data set [1] (run in duplicate, read-out: EC50) amounted to 0.09 nM.

B4: [Gd/DOTA-NH—CH2-(1,4-Ph)-NH—C(═O)-Met-Ile-NH—(CH2)2-(A-4 and/or A-5)]p-Fab^5 (conjugate)
heavy: B1 heavy
light: B1 light
For the molecule B4, the “Renal residual amount (normal mice), % of dose/tissue” value in data set [5] was 2.30 % of dose/tissue.

B5: [Gd/DOTA-NH—CH2-(1,4-Ph)-NH—C(═O)-Met-Ile-NH—(CH2)2-(A-3)]p-Fab^5 (conjugate)
heavy: B1 heavy
light: B1 light
As for B5, the “Renal residual amount (normal mice), % of dose/tissue” value in [5] was 2.80 % of dose/tissue.

B6: ([Gd/DOTA-NH-CH2-(1,4-Ph)-NH-C(═O)-Met-Ile-NH-(CH2)2-(A-4 and/or A-5)]p-Fab^5) (Fab, V domains shown)
VH: QVQLVQSGAEVKKPGASVKVSCKASGYTFTNYGLSWVRQAPGQGLEWMGENHPGSGIIYHNEKFRGRVTLTADRSTSTAYMELSSLRSEDTAVYYCARSSGTRGFDYWGQGTLVTVSS
VL: DVVMTQTPLSLSVTPGQPASISCRSSQSIVHSNGNTYLEWYLQKPGQSPQLLIYRVSNRFSGVPDRFSGSGSGTDFTLKISRVEAEDVGVYYCFQGSHGPWTFGQGTKLEIKR
modifications: labeling portion on p amino groups of the Fab; chain and sites not stated
Molecule B6 returned an EC50 in [6] of 80 pM.

B7: Ex-No 108, conjugate with Fab^5 that does not contain a peptide linker (structure only as drawing CHEM-US-00162) (Fab, V domains shown)
VH: B6 VH
VL: B6 VL
modifications: labeling portion on p amino groups of the Fab; chain and sites not stated
Turning to B7, the EC50 in data set [7] and in data set [6] was 70 pM each time.

B8: ([Gd/DOTA-NH-CH2-(1,4-Ph)-NH-C(═O)-Met-Ile-NH-(CH2)2-(A-3)]p-Fab^5) (Fab, V domains shown)
VH: B6 VH
VL: B6 VL
modifications: labeling portion on p amino groups of the Fab; chain and sites not stated
B8 came in with an EC50 in data set [6] of 150 pM.

B9: [Gd/DOTA-[2,5-(1,2,3,4-tetrahydroisoquinoline)]-C(═O)-Met-Gly-Lys*-Z2(#N)]p-Fab^2 (conjugate)
heavy: EVQLVESGGGLVQPGGSLRLSCAASGFNIRDTYMHWVRQAPGKGLEWVARIDPANGNSRYVPKFQGRFTISADTSRNTAYLQMNSLRAEDTAVYYCAPFGYYVSDYAMAYWGQGTLVTVSSASTKGPSVFPLAPSSKSTSGGTAALGCLVKDYFPEPVTVSWNSGALTSGVHTFPAVLQSSGLYSLSSVVTVPSSSLGTQTYICNVNHKPSNTKVDKKVEPKSCD
light: DIQLTQSPSSLSASVGDRVTITCRAGESVDIFGVGFLHWYQQKPGKAPKLLIYRASNLESGIPSRFSGSGSRTDFTLTISSLQPEDFATYYCQQTNEDPYTFGQGTKVEIKRTVAAPSVFIFPPSDEQLKSGTASVVCLLNNFYPREAKVQWKVDNALQSGNSQESVTEQDSKDSTYSLSSTLTLSKADYEKHKVYACEVTHQGLSSPVTKSFNRGEC
Consider B9, for which, in data set [8], the “Renal residual amount (cancer-bearing mice), % of dose/tissue” value is 7.30 % of dose/tissue and the “Renal residual amount (cancer-bearing mice), Proportion of decrease (%)” value came out at 71.74%. In addition, the “Amount of tumor accumulation (tumor-bearing mice), % of dose/g” value in data set [9] is listed as 4.53 % of dose/g. In data set [10], the “Proportion of decrease (%) in the amount of Gd contained in the kidneys” value (“Proportion of decrease (%) … in the kidneys” below) was 82.9%.

B10: [Gd/4arm-DOTA-CH2-(1,4-Ph)-NH—C(═S)—NH—CH2-(1,3-Ph)-C(═O)-Met-Gly-Lys*-Z2(#S)]p-Fab^2 (conjugate)
heavy: B9 heavy
light: B9 light
As for B10, in [10], the “Proportion of decrease (%) … in the kidneys” value was 72.9%.

B11: [Gd/DOTA]p-Fab^2 (conjugate)
heavy: B9 heavy
light: B9 light
For the molecule B11, the “Renal residual amount (% of dose/tissue), Mean” value was 25.83 % of dose/tissue in [8] and 29.33 % of dose/tissue in [12]. Moreover, the “Geometric mean (% of dose/tissue)” value in data set [11] is recorded as 31.0 % of dose/tissue. Moreover, the “Renal residual amount (normal mice), % of dose/tissue” value in data set [13] is on record as 31.30 % of dose/tissue.

B12: [Gd/4arm-DOTA-CH2-(1,4-Ph)-NH—C(═S)-Gly-Phe-Lys*-Z2(#N)]p-Fab^2 (conjugate)
heavy: B9 heavy
light: B9 light
For B12, the “Proportion of decrease (%) … in the kidneys” value in data set [10] is given as 68.0%.

Usually EC50 stands for the concentration needed to bring the measured effect to its halfway point.
